Measured values taken from PMC8998617 (2022).

Molecular target: recombinant human full-length Tau (2N4R, 441 aa), non-phosphorylated (human, UniProt P10636-8 1-441)
Test: SPR

B1: Nup98-FG/FS (full F/S mutant of Nup98-FG) (domain or fragment)
chain: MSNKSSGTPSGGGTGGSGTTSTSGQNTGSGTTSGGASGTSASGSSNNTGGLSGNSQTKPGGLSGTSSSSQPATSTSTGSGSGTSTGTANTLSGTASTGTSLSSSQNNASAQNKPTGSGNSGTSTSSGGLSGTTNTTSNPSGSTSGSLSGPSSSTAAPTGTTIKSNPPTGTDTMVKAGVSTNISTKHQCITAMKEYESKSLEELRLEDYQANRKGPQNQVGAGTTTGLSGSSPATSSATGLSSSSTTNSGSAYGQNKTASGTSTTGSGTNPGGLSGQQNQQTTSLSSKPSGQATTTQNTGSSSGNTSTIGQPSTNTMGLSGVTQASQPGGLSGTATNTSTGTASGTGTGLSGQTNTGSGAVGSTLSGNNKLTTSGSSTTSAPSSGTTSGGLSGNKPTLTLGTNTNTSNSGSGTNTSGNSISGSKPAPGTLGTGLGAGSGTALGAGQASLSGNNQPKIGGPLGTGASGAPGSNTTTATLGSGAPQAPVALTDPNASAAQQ
Kd: 360 nM
